The DeepSol protein solubility set

Test: soluble on expression in E. coli; label from the status in PepcDB or PDB records
In the case of “GPGSMSKQKKEVVINLDEVDEQTGYKSAELFVWLKFDETYLQKPEDDREADVDAWVDAFCEQMEEEGMNYDRNFVRSVCVLGIYAGARDEFQQRMGSGKAVYPNGDRYDGEFFEGKKHGTGRYCFVSRGKSECDRIVEKEMQKLGGAVPDEQFITNVAEKYKISRQIVSWIIEYGVYPCYHGDYVRGVRTGQGLMKNKDGTVYKGDFLANKRHGQGMFYYLNGDIFSGTWRNGLKHGYGTYHFAGGSEYRGSWVDGVFTQGQWIFPDGTYYEGLFNKKNRPCDDAASMHFPSIKMAQTGVFRRGVWAPSSALQVCEETPVDGMSWID”, the “soluble on expression in E. coli” value is reported as “soluble”. With “MAKRKAEDTQSDKMATAEKVAQNDYTIGLVDPVKDYQKLIETRVQVDEIVDDDVTKENFDRTAAAARDVIWRLLFDEAGTSQSNTEKASQLLEEYRGDACFYDPTPYNEWIVKLRDEVLKKELLDFWRDVLVKKQLGPCWSRDSDLFDSDDTPPLEFYAHAGCTAPFAASLKVRAALEEQASLDQDGPATPTTPGELSADDAAALSGEFEATLTKENPLEEYRTLMKRFVLTKIIVPDSVHQASVKKIAAAAREIIWKLLFDGTPSAEDQNKAAELLQEYKGDAGFYGPDDYNSWIFNLRDEVLTKELLDFWRDKMVKMELGPSCARDSDYYDNEDPLPFEFYEKAGCKAPFEGPVNDD” the “soluble on expression in E. coli” value was “soluble”. With “LKAVNAKKDAKKIDFYEDFSCPHCAELGEVTDGPMTKAIENGDIVVNLRILNFLDRDGDDGNSTKAGAAALAVAQSGDWETYWNYRALLMKEQKNIYGKWGDNDFADVAKSLGASDEVTQKIREGGAKEDFRKFAEANSKKLEKDGGSVSSPRVFIDGKEVKNGIETWVEQATS” the “soluble on expression in E. coli” value was “not soluble”. In the case of “MSLKEEEIQNDFMFEEYHKGDKIVLNSVNGGSKTLIRTDKGFVVEGEEGKVLMFDFFGTFCTPCKEEALDLSKLWKNNSSKFIIIGLTHFEDVSDETVKKFAGDYGAYYFLSNGSSNDRIIAQILKDIDYQNMEQLPFKVVLKNGIYQKISDYWNNNTPTNFYLGKIPTELMQEDLNKIYKGKEGHHHHHH”, the “soluble on expression in E. coli” value is reported as “soluble”. With “MLFIIKYYEPKNLYEHILFILKHLCRSKSMILNPQKLSVDFGNGITATEPIIPRRYTLTHSDITAKLFLNIGLTYAYNKMTTMRDEVLGEWVKKSQDYSYQVFLHVDGRLGPKTTAIRNKIFRRELPLALEAIRYGDKRFFNAHPYLDNAPITVFFISTNPNFNKIENWGTFSDYNIESYYRNYKNVYLLDRKVGDVTGDDIPDTVSLYGEKEAPSEIFADDITVIITDGSTGNTTTITPEFNSGYNPTIFLGDFTKNRVYDIKISIDSGGSGGYGFFYIYSFMENTFREIFNFDAYNKEYKYKVDYDDLYKVNVGAITLNKLFILDISYKGYDVLSQYYYENGKLIKPVDGDVLALGALVPIVSNELLDFYNLLAFQRIIGTYNADTLGYVQNLLSWDGKNFTPSSTFVNISGSSLISPYLEHHHHHH” the “soluble on expression in E. coli” value was “not soluble”. For “MDNCLAAAALNGVDRRSLQRSAKLALEVLERAKRRAVDWHALERPKGCMGVLAREAPHLEKQPAAGPQRVLPGEREERPPTLSASFRTMAEFMDYTSSQCGKYYSSVPEEGGATHVYRYHRGESKLHMCLDIGNGQRKDRKKTSLGPGGSYQISEHAPEASQPAENISKDLYIEVYPGTYSVTVGSNDLTKKTHVVAVDSGQSVDLVFPVLEHHHHHH”, the “soluble on expression in E. coli” value was “soluble”. For “GPGSMQQPTAQEEQYVNVPVPLTGEEKGWQEVAPNRYIRYEQFGGSDAEMNFIVNLFTAELTEPYSSFTYQYFVFGWPDLCITAFGVESETKPDNSVVGEKVGAVVSRVTRKGAGMPLRGYVAMFAVVPKFRGYRLGSRLVSLTVELMRAKGCDEVYLETPTSNVRALGLYLNLGFAKTKYLPRYYLDHSDAVRLKLWLKDAIPKSVPETASTAGVEKA”, the “soluble on expression in E. coli” value was “soluble”. In the case of “MPICTRLTAQIVKVAVNQPVAIRSSMWAKNNQNIHFMNLHVKKLEKLLLF”, the “soluble on expression in E. coli” value is reported as “not soluble”. With “MGSDKIHHHHHHMKQILNTLYVMTQGAYVCLDHETVKVEVKGALQMQVPLHHLGAIVTMGNVMMSPFIMARCAEDGRALVILDRNGKFKCRVVGKTSGNVLLRQTQYEAVRDRERSAAIARNMVAGKVKNARQILMRGARETTDADESAVLRKAGDTLADALFHLKDATDIDHVRGLEGEAANAYFQVFDRMVKEEERPAFRMNGRNRRPPLDPMNALLSFLYTLLLNDCISAVEGVGLDSQMGFLHVLRPGRPSLGLDIMEEFRAVLADRLALTLINRKQITEKHFEVRPGGATYLDDAGRKEVIMAYQKRKQDEFHHPVLDQKVPFGLLPHVQARLLARHLRGDLEQYTPVLYS” the “soluble on expression in E. coli” value was “not soluble”. In the case of “GSHMLEMSGPRAGFYRQELNKTVWEVPQRLQGLRPVGSGAYGSVCSAYDARLRQKVAVKKLSRPFQSLIHARRTYRELRLLKHLKHENVIGLLDVFTPATSIEDFSEVYLVTTLMGADLNNIVKCQALSDEHVQFLVYQLLRGLKYIHSAGIIHRDLKPSNVAVNEDSELRILDFGLARQADEEMTGYVATRWYRAPEIMLNWMHYNQTVDIWSVGCIMAELLQGKALFPGSDYIDQLKRIMEVVGTPSPEVLAKISSEHARTYIQSLPPMPQKDLSSIFRGANPLAIDLLGRMLVLDSDQRVSAAEALAHAYFSQYHDPEDEPEAEPYDESVEAKERTLEEWKELTYQEVLSFKPPEPPKPPGSLEIEQ”, the “soluble on expression in E. coli” value is reported as “soluble”. In the case of “MEIQFLGTGAGVPAKHRNVTGIALKLLDERNAVWLFDCGEGTQLQILKSSIRPRKIEKIFITHLHGDHIFGLPGLLSSRSFQGGTEPLEIYGPVGIADFVKTSLRVSQSRLSYPLKFIELTKENDVIFKDKQFTVRCNILDHGITSFGYRIEEAAHEGELQVEKLQALGIPSGPLYGKLKRGETIVFDGQEINGQAFVGERKPGRIVTILGDTRKTKNSVTLARRADVLVHESTFNKHEAKMAKAYFHSTSQQAAEVAKEAQVKQLILTHISARYLTKEAYQLQEEAQEIFPNTKIVKDMDIIEIPFANEGGA”, the “soluble on expression in E. coli” value is reported as “not soluble”. With “MSFVNVDPFGMLAAAATLESLGSHMAVSNAAVASVTTKVPPPAADYVSKKLSLFFSSHGQQYQVQAARGTAFHRKLVRTLANGALAYEEVEIANNEGF” the “soluble on expression in E. coli” value was “not soluble”. With “MADPLSKEEDIQHRPDSPPLGLLDPSRIQNPLANDQLHQVPQQQNPSGFVMPEQPRQQPPPQTWQRTPTMSPANIFQGGSGTPGSQRSSTGTPNHQMGNPPQHQQQQFFHGESPAHSQGTPMTPQSAGMPGSNCGTPQSAGGPPTSVPYDYQQAQMQQQQHAQAMAAAAAAQQQQQQHLQQQQYAQNPQQMHDSPYRQHQMMQMHQHPGHPSQYPPGYPQQQAAQWQQQMYARQAAAQAQAQAQAQAQAQAQQRAAAQRVPVPYPPGAYPPGMPGPMTPGYPAQAPAAPRTTPGSAGPGTGPPGTPQRPQYPQGTNPQPQQAQFTYPPTQQMTPTGQPPGYPGMPGTPTFSSPAHQMFRQGQPTAPPGMRQYISPQAGQQQPTPGTPHRFAPPGPSGTTSSPHFAPGAPGADLRSPSLMSPNQQSQQHTPVLPRSLHNEMTSHGMRPIALPSQPLPQTQGTPQPILSASSLPPQSAGATQFVYRPQQPNQMNTMNQMNQMHHDVNPFPIQMNVDPELYLTGIHFHCFDSEKLFEDKLDRKNLEFMIKYHGGDIEFEASKFHERIHQITHVLVDSCRNTNVMTSLEHRKRIVSIQWIIDVMERERVELPWRIAHLPPPFNENFRPYLGKLFSLSGFDSSERAAISFMAEMMGAKITPFLARQNDLLIAKQPADKVTRAQEWKVPVVNFQWIADAYVCDEASPQKRPNVENPRYQLENPVMTNVNTSPNHIEGASQEFGAMMSCWKSQTIIADQAYEKARQNRKTLQNNTFFFPSKRLSDQAVAPTEDEIKSSRARLDEIKTHWEEHQEKMKDTPLSKEFYRVREPQARVSAWFGEGIDDEALTILKKKLEFLGGECVEKIRDATHVILISGRRSLVLLESIIRGKNIMDPEWIVDSYKQKMWLDTLDYFLHDKELEKEFAYNCKRSVLRARNKPVFEDIEFHVTRFVEPNQNDLVRLIELGGGNVHSEKPDPKYLAKCVETEQPFIIISCENDARFLSYLAGSKLPIYNVDLVLFAMLRQQIEPLPQYRIPIPIVVKTPVFRQPPPYTAPPKDQEPAASLASEPTRAADVLSENS” the “soluble on expression in E. coli” value was “not soluble”. For “MDGYEEYTVLKEWEKTHKNEEIYSIRFGGNYMIDMKDGIKLSTDVYLPDFVDSAKKAPTILMRTPYGKENDKEIYYKYVQRGYAVVIQDVRGRNESEGKWEPMIHEREDGDSTINWIVSQEWSSGIVGMLGASYLGYVQWAAASSGNKHLKALVSIVTSGSPFIDIPRKGGAFVSGMLAWAFMVSRNKVDRSKMVRDDWDDVLNIRPIENIPVEALGYRIEFLEEWLKRVEKDEYWDLMDWHLQKDKINVPALVVSGWYDDNSMGTTEALDVIKDYEKGKRKAILGPWMHNSNTLRDINGISLGNSSLRYDLDYNYLLWFDKYLKGIENNIDTTAPVEYYSVGSNKWKTEE”, the “soluble on expression in E. coli” value was “not soluble”. For “MIVIFVHGWSVTHTNTYGELPQWLENQSKQGKLDIQVGNIYLGRYISFDDTVTVDDIARAFDQAVRDEIAAKVKDGQRFACITHSTGGPIVRKWMDLYFKNNLAKCPLSHLIMLAPANHGSALAQLGKSRLGRIKSFFEGIEPGKCVLDWLELGSDMSWQLNESWLDYDCTANGVYSFVLTGQKIDRQLYDAVNSYTGESGSDGVVRVAATNMNYSLLKLHQEGDNGESLVVAKMTRTQPMAFGVLPGLSHSGKNIGIIRSITMANAATHPTAIWVLRCLQVKSRDSYNKLVKELDNITKETQKNEHKEFVKTLVFTREYITNRYSMIIFRLIDDRGNHLIDYDLYLTAGPQYSEQALPAGFFVDRQRNLNNRGKLTYFLDYDIMEGGINTPKMQGNLGFRVKAYPESSEQALAYYRLLDFHSSLADIHKILHPNETVMVEIMLQRRVDKTVFRINNNLTPAKISGKPTGKKID”, the “soluble on expression in E. coli” value was “not soluble”. With “MASNFKKANMASSSQRKRMSPKPELTEEQKQEIREAFDLFDADGTGTIDVKELKVAMRALGFEPKKEEIKKMISEIDKEGTGKMNFGDFLTVMTQKMSEKDTKEEILKAFKLFDDDETGKISFKNLKRVAKELGENLTDEELQEMIDEADRDGDGEVSEQEFLRIMKKTSLY” the “soluble on expression in E. coli” value was “soluble”. For “MSLTLAFAYVRASTIEEVRQGSNERQKEAIRQYTYQKGYELEIFEDKAKSGRNTLRPEFERMLKSLDRRPQIVIVSKIDRFARSLSDLLKTLEYLDQNGVGFVSVNDPGIDTTTPNGRLLLQILGAFAEFERNMINSRTKAGREQAQSKGVKFGRPPLKTRNGSFIDRRKVMELKQKGLSARAIAKSLECSTTPILRILRENEGHHHHHH”, the “soluble on expression in E. coli” value was “soluble”. With “MNSSLKNLLNNKILVLDGAMGTCIQSFNLDEGDFKGSLSCTCHSNQKGNNDVLNLTKPEIIKEIHKRYLEAGADIIETNTFNATEISQKDYNMQDKIYDINFKGAKLAKEACTYYTKLNPNKPRFAAGSIGPTNRTASLSPDVENPGFRNVTFDELCNAYKHQIEALIDGGVDLLLIETIFDTLNARAAIFAAETVFENKKIKLPIIISGTIADKSGRILSGQTLDAFAESLKNENIIAIGLNCSFGAEELIPFIKRLSETQNRYISFHPNAGLPNSLGEYEELPEETASIVKKLALEGHLNIVGGCCGTTPEHIRAISSVVKGISPRKVPNLEPKTIYSGLENIKIDKNSNFINIG” the “soluble on expression in E. coli” value was “not soluble”. For “MPKHCSHLIIIPDGKMAAIPFEALIEKRPKHDTSSYAQMGFMIKKYATSYTYTASLYENTHEAAKVKKVLLFAPVDFSASSDLNALPGTLAEVDTLTSLCTNTAQADVYTYTAASKAVLVSDSLSGYSIIHLATHGLVDEEQPELSCIYTSGTSEENDRIYAGDMYNMHLNAALVSLSACQTGLGKIEKGEGMIGLSRALFYAGADNIMVSLWKVSDLSTQVYMQYFYSIYLSENFTTFAEAARISKIKLLNSETFNSPYYWAAFILIGKLEHHHHHH”, the “soluble on expression in E. coli” value was “not soluble”. For “IARVVVHPDYRADGLGILAVRTAVEWIEERRVPEMRMRKHLVETIAQMARFNPFFEKAGFYYLWDTASGKPVLYKPLSEEAE”, the “soluble on expression in E. coli” value was “not soluble”.
